{"source": "patent US20240270846A1", "about": "(published 2024)", "binders": {"B1": {"name": "GLS3000 R29G one-arm antibody (H chain CE115HA000) (antibody, human IgG1, kappa, L234A L235A, N297A, name in Kabat numbering)", "heavy": "QVQLVESGGGVVQPGRSLRLSCAASGFTFSNAWMHWVRQAPGKGLEWVAQIKAKSNNYATYYAESVKGRFTISRDDSKNSLYLQMNSLKTEDTAVYYCRYVHYGAYYGVDAWGQGTTVTVSSASTKGPSVFPLAPSSKSTSGGTAALGCLVKDYFPEPVTVSWNSGALTSGVHTFPAVLQSSGLYSLSSVVTVPSSSLGTQTYICNVNHKPSNTKVDKKVEPKSCDKTHTCPPCPAPEAAGGPSVFLFPPKPKDTLMISRTPEVTCVVVDVSHEDPEVKFNWYVDGVEVHNAKTKPREEQYASTYRVVSVLTVLHQDWLNGKEYKCKVSNKALPAPIEKTISKAKGQPREPQVYTLPPSRCELTKNQVSLSCAVKGFYPSDIAVEWESNGQPENNYKTTPPVLDSDGSFFLVSKLTVDKSRWQQGNVFSCSVMHEALHNHYTQKSLSLSPDYKDDDDK", "chain": "EPKSSDKTHTCPPCPAPELLGGPSVFLFPPKPKDTLMISRTPEVTCVVVDVSHEDPEVKFNWYVDGVEVHNAKTKPREEQYNSTYRVVSVLTVLHQDWLNGKEYKCKVSNKALPAPIEKTISKAKGQPREPQVCTLPPSRDELTKNQVSLWCLVKGFYPSDIAVEWESNGQPENNYKTTPPVLDSDGSFFLYSKLTVDKSRWQQGNVFSCSVMHEALHNRYTQKSLSLSP", "light": "DIVMTQSPLSLPVTPGEPASISCRSSQSLVHSNGNTYLHWYQQKPGQAPRLLIYKVSNRFSGVPDRFSGSGSGTDFTLKISRVEAEDVGVYYCGQGTQVPYTFGQGTKLEIKRTVAAPSVFIFPPSDEQLKSGTASVVCLLNNFYPREAKVQWKVDNALQSGNSQESVTEQDSKDSTYSLSSTLTLSKADYEKHKVYACEVTHQGLSSPVTKSFNRGEC", "notes": "one-arm antibody"}, "B2": {"name": "GLS3000 R29I one-arm antibody (H chain CE115HA000) (antibody, human IgG1, kappa, L234A L235A, N297A, name in Kabat numbering)", "heavy": "B1 heavy", "chain": "B1 chain", "light": "B1 light with G34I", "notes": "one-arm antibody"}, "B3": {"name": "GLS3000 R29L one-arm antibody (H chain CE115HA000) (antibody, human IgG1, kappa, L234A L235A, N297A, name in Kabat numbering)", "heavy": "B1 heavy", "chain": "B1 chain", "light": "B1 light with G34L", "notes": "one-arm antibody"}, "B4": {"name": "GLS3000 R29P one-arm antibody (H chain CE115HA000) (antibody, human IgG1, kappa, L234A L235A, N297A, name in Kabat numbering)", "heavy": "B1 heavy", "chain": "B1 chain", "light": "B1 light with G34P", "notes": "one-arm antibody"}, "B5": {"name": "GLS3000 R29S one-arm antibody (H chain CE115HA000) (antibody, human IgG1, kappa, L234A L235A, N297A, name in Kabat numbering)", "heavy": "B1 heavy", "chain": "B1 chain", "light": "B1 light with G34S", "notes": "one-arm antibody"}, "B6": {"name": "GLS3000 R29T one-arm antibody (H chain CE115HA000) (antibody, human IgG1, kappa, L234A L235A, N297A, name in Kabat numbering)", "heavy": "B1 heavy", "chain": "B1 chain", "light": "B1 light with G34T", "notes": "one-arm antibody"}, "B7": {"name": "GLS3000 R29V one-arm antibody (H chain CE115HA000) (antibody, human IgG1, kappa, L234A L235A, N297A, name in Kabat numbering)", "heavy": "B1 heavy", "chain": "B1 chain", "light": "B1 light with G34V", "notes": "one-arm antibody"}, "B8": {"name": "GLS3000 R29Y one-arm antibody (H chain CE115HA000) (antibody, human IgG1, kappa, L234A L235A, N297A, name in Kabat numbering)", "heavy": "B1 heavy", "chain": "B1 chain", "light": "B1 light with G34Y", "notes": "one-arm antibody"}, "B9": {"name": "GLS3000 R54A one-arm antibody (H chain CE115HA000) (antibody, human IgG1, kappa, L234A L235A, N297A, name in Kabat numbering)", "heavy": "B1 heavy", "chain": "B1 chain", "light": "B1 light with G34R, R59A", "notes": "one-arm antibody"}, "B10": {"name": "GLS3000 R54D one-arm antibody (H chain CE115HA000) (antibody, human IgG1, kappa, L234A L235A, N297A, name in Kabat numbering)", "heavy": "B1 heavy", "chain": "B1 chain", "light": "B1 light with G34R, R59D", "notes": "one-arm antibody"}}, "note": "Changes are numbered by the printed parent chain. Names and notes keep the numbering of the source.", "data": [{"biological_target": "T1, CD3 epsilon homodimer protein (UniProt P07766 23-126)", "T1 construct": "also called CD3 (CD3 epsilon)", "T1 sequence (P07766 23-126)": "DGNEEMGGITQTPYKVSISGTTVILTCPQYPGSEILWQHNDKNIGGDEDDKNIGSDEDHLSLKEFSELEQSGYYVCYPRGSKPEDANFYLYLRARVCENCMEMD", "assay": "SPR, CD3e homodimer on chip;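 also: surface plasmon resonance at 25 degrees C, antibodies flowed as analyte over CD3 epsilon homodimer amine-coupled to a CM4 chip, running buffer HBS-EP+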", "protocol": "An appropriate amount of CD3 epsilon homodimer protein was immobilized onto Sensor chip CM4 (GE Healthcare Japan Corp.) by the amine coupling method. Then, the antibody having an appropriate concentration was injected thereto as an analyte and allowed to interact with the CD3 epsilon homodimer protein on the sensor chip. Then, the sensor chip was regenerated by the injection of 10 mmol/L glycine-HCl (pH 1.5). The assay was conducted at 25 degrees C., and HBS-EP+(GE Healthcare Japan Corp.) was used as a running buffer. […] Each parameter was calculated using Biacore T200 Evaluation Software (GE Healthcare Japan Corp.).\nSpecifically, when the amount of the GLS3000-containing antibody bound was defined as X and the amount of the L chain one-amino acid altered form bound was defined as Y, a value of Z (ratio of amounts bound)=Y/X was used.", "values": [{"binder": "B1", "ratio of amounts bound (altered form / unaltered GLS3000 antibody)": 0.67}, {"binder": "B2", "ratio of amounts bound (altered form / unaltered GLS3000 antibody)": 0.37}, {"binder": "B3", "ratio of amounts bound (altered form / unaltered GLS3000 antibody)": 0.56}, {"binder": "B4", "ratio of amounts bound (altered form / unaltered GLS3000 antibody)": 0.31}, {"binder": "B5", "ratio of amounts bound (altered form / unaltered GLS3000 antibody)": 0.68}, {"binder": "B6", "ratio of amounts bound (altered form / unaltered GLS3000 antibody)": 0.63}, {"binder": "B7", "ratio of amounts bound (altered form / unaltered GLS3000 antibody)": 0.34}, {"binder": "B8", "ratio of amounts bound (altered form / unaltered GLS3000 antibody)": 0.69}, {"binder": "B9", "ratio of amounts bound (altered form / unaltered GLS3000 antibody)": 0.69}, {"binder": "B10", "ratio of amounts bound (altered form / unaltered GLS3000 antibody)": 0.36}]}]}
